Test results from patent KR20220013311A (dated 2022).

What was measured:
[1] = biological target: T1, SARS-CoV-2 바이러스 표면 단백질 (RBD) (SARS-CoV-2, UniProt P0DTC2 319-541); assay: BLI (Octet), full IgG against RBD
[2] = biological target: T1, SARS-CoV-2 바이러스 표면 단백질 (RBD); assay: BLI (Octet), full IgG against RBD; printed as kdis
[3] = biological target: T1, SARS-CoV-2 바이러스 표면 단백질 (RBD); assay: BLI (Octet), full IgG against SARS-CoV-2 RBD

B1: No. 32 항체 (Full IgG) (antibody, V domains shown)
VH: EVQLVQSGGGLIQPGGSLRLSCAASEFIVSSNYMTWVRQAPGKGLEWVSIIYPGGSTYYADSVKGRFTISRDNSKNTLYLRMNSLRAEDTAVYYCARDLPLTGTTLDYWGQGTLVTVSS
VL: not shown
[1]
  Kd: 0.305 nM
  kon: 633000 M⁻¹ s⁻¹
[2]
  koff: 0.000193 s⁻¹
[3]
  Kd: 0.147 nM
